How the values were obtained:
[1] = target: Complement C3b (human) (UniProt P01024); experiment: ELISA; competition; heparin-binding plates coated with 25 ug/ml human C3b alone; FH fixed at 16 nM with rFHR-5 at 7-221 nM (dimer), 2 h room temperature, 5% BSA, 100 mM NaCl, 50 mM NaOAc, pH 7.3; bound FH detected with monoclonal anti-FH; FH binding without rFHR-5 = 100%
[2] = target: Complement C3b (human) (UniProt P01024); experiment: ELISA; competition; heparin-binding plates coated with 25 ug/ml human C3b together with 40 ug/ml kidney heparan sulfate; FH fixed at 16 nM with rFHR-5 at 7-221 nM (dimer), 2 h room temperature, 5% BSA, 100 mM NaCl, 50 mM NaOAc, pH 7.3; bound FH detected with monoclonal anti-FH; FH binding without rFHR-5 = 100%

B1: Recombinant complement factor H-related protein 5 (natural protein)
chain: EGTLCDFPKIHHGFLYDEEDYNPFSQVPTGEVFYYSCEYNFVSPSKSFWTRITCTEEGWSPTPKCLRMCSFPFVKNGHSESSGLIHLEGDTVQIICNTGYSLQNNEKNISCVERGWSTPPICSFTKGECHVPILEANVDAQPKKESYKVGDVLKFSCRKNLIRVGSDSVQCYQFGWSPNFPTCKGQVRSCGPPPQLSNGEVKEIRKEEYGHNEVVEYDCNPNFIINGPKKIQCVDGEWTTLPTCVEQVKTCGYIPELEYGYVQPSVPPYQHGVSVEVNCRNEYAMIGNNMITCINGIWTELPMCVATHQLKRCKIAGVNIKTLLKLSGKEFNHNSRIRYRCSDIFRYRHSVCINGKWNPEVDCTEKREQFCPPPPQIPNAQNMTTTVNYQDGEKVAVLCKENYLLPEAKEIVCKDGRWQSLPRCVESTAYCGPPPSINNGDTTSFPLSVYPPGSTVTYRCQSFYKLQGSVTVTCRNKQWSEPPRCLDPCVVSEENMNKNNIQLKWRNDGKLYAKTGDAVEFQCKFPHKAMISSPPFRAICQEGKFEYPICE
percent of FH binding to surface C3b left at a 1:1 molar ratio of rFHR-5 and FH [1]: 80% | percent of FH binding to surface C3b with kidney HS left at a 1:1 molar ratio of rFHR-5 and FH [2]: 50%

— paper PMC8313009
